Reference: PMC3350781 (Current Biology, 2011)

T1: Wsp1p poly (p)-VCA (residues 129-574 including the polyproline domain and VCA) (S. pombe, UniProt O36027 129-574)
T1 sequence (looked up): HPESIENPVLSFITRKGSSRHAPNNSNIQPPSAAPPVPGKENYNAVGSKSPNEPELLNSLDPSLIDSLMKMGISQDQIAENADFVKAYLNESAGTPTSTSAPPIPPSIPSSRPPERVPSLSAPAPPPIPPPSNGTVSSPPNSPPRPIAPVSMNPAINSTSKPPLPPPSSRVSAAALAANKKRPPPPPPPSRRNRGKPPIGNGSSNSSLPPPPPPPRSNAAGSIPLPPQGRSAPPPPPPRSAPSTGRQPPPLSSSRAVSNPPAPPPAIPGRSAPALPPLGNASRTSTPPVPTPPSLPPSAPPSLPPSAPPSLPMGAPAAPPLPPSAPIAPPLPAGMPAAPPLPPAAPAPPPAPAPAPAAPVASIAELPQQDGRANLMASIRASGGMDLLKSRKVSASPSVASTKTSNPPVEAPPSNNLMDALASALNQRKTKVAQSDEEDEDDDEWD

B1: GST-Bzz1pSH3 (residues 586-642) (domain or fragment, S. pombe, UniProt Q09746 586-642, looked up)
chain: SSYVKALYAYTAQSDMELSIQEGDIIQVTNRNAGNGWSEGILNGVTGQFPANYVTDV
B2: GST-Bzz1pSH3SH3 (residues 521-642) (domain or fragment, S. pombe, UniProt Q09746 521-642, looked up)
chain: VVLYDFTGEHEGVITASEGQEFTLLEPDDGSGWVRVKIDGTDGLIPASYVKLNDELNTSVTLDGDSSYVKALYAYTAQSDMELSIQEGDIIQVTNRNAGNGWSEGILNGVTGQFPANYVTDV

Target: T1, Wsp1p poly (p)-VCA (residues 129-574 …)
Test: pull-down

Binder | Kd [nM]
B1 | ~2000
B2 | ~100
